Data on 2 substances can be found in publication PMC9865183.

The target of assay [1] is linear Z3 (linear trimer of the Staphylococcus aureus protein A Z domain) (Staphylococcus aureus). Description: AUC; sedimentation velocity at 40,000 and 60,000 rpm, PBS (Dulbecco), 20 °C, 220 nm; molar mass transformation.
The target of assay [2] is rituximab (human monoclonal IgG1) (human). The assay can be described thus: ITC; Z3 titrated into rituximab in the sample cell; PBS, pH 7.4, 25 °C; MicroCal PEAQ-ITC; triplicate.
For assay [3] the target is unchanged. The assay can be described thus: SPR; rituximab covalently immobilised (NHS/EDC) on a CM5 chip, Biacore X100; Z3 flowed over in HBS-EP+ (10 mM HEPES, 150 mM NaCl, 3 mM EDTA, 0.005% Tween-20, pH 7.4); 1:1 Langmuir model; KD calculated as koff/kon.
Assay [4] shares this target. Description: differential scanning fluorimetry; equimolar (1:1) mixture of rituximab and Z3 against rituximab alone; SYPRO orange, 20 mM Tris, pH 7.4.

Chain of rituximab (human monoclonal IgG1) (human) (heavy, as listed by the source, chain 1 of 2): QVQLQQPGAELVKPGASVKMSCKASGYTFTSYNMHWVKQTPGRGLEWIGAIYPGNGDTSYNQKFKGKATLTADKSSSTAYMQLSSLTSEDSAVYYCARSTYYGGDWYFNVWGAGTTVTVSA
Chain of rituximab (human monoclonal IgG1) (human) (light, as listed by the source, chain 2 of 2): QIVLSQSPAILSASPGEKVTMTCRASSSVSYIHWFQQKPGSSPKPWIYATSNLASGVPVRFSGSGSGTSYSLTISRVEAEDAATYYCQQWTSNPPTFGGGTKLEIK

In assay [1], “linear Z3 (linear trimer of the Staphylococcus aureus protein A Z domain) (designed binder)” showed a stoichiometry N of under 3. In assay [2], this substance returned a Kd of 2.8 nM, a dH of -33 kcal/mol and a stoichiometry N (IgG1 molecules per linear Z3) of 1.9. Further, in assay [3], the Kd is 2.9 nM, the koff was 0.00092 s⁻¹ and the kon was 310000 M⁻¹ s⁻¹. In addition, in assay [4], the increase of the lower transition temperature of rituximab stood at 4.9 °C and the upward shift of the 81.3 °C transition of rituximab is 3.3 °C.

In assay [2], “cyclic Z3 (intein-cyclized trimer of the Staphylococcus aureus protein A Z domain) (designed binder)” showed a Kd of 7.6 nM, a dH of -32.7 kcal/mol and a stoichiometry N (IgG1 molecules per cyclic Z3 molecule) of 2.1. In addition, in assay [3], the Kd was 3.3 nM, the koff was 0.00073 s⁻¹ and the kon was 220000 M⁻¹ s⁻¹. Besides, in assay [4], the increase of the lower transition temperature of rituximab came to 4.9 °C and the upward shift of the 81.3 °C transition of rituximab came to 1.5 °C.
